According to paper PMC9482650, “Quantitative fragmentomics allow affinity mapping of interactomes” (Nature Communications, 2022):

Legend:
Assay in all cases: holdup assay
Parameters in all cases: key: below the threshold = too weak to quantify, mostly under pKd 3.1 to 4
[1] = molecular target: MAGI1_2, Q96QZ7
[2] = molecular target: MAGI2_4, Q86UL8
[3] = molecular target: T1, GRIP1_7, Q9Y3R0
T1 sequence (Q9Y3R0 999-1096, limits assumed, looked up): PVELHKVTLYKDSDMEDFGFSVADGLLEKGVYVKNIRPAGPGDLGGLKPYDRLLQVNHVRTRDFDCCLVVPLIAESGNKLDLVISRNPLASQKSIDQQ

[4] = molecular target: NHERF4_2, Q86UT5
NHERF4_2, Q86UT5, sequence (Q86UT5 220-308): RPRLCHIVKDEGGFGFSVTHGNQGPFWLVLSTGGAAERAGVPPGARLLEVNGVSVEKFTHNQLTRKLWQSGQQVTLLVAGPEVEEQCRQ

[5] = molecular target: DLG1_1, Q12959
[6] = molecular target: T2, ARHGEF11, O15085
T2 sequence (O15085 42-136, limits assumed, looked up): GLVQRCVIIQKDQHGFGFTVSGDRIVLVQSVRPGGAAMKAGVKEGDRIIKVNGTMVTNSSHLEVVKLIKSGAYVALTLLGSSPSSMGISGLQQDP

[7] = molecular target: Inadl_6, Q8NI35
Inadl_6, Q8NI35, sequence (Q8NI35 1058-1167): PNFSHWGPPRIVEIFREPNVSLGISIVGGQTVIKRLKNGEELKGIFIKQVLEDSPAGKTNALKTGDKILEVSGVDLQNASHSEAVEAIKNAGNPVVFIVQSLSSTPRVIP

[8] = molecular target: T3, RAPGEF6, Q8TEU7
T3 sequence (Q8TEU7 525-625, limits assumed, looked up): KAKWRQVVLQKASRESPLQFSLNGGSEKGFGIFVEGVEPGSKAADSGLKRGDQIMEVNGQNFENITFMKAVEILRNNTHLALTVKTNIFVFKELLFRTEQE

[9] = molecular target: DLG5_1, Q8TDM6
DLG5_1, Q8TDM6, sequence (Q8TDM6 617-713): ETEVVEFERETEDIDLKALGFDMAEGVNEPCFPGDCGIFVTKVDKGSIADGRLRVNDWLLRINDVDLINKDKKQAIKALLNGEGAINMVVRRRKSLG

[10] = molecular target: T4, RADIL, Q96JH8
T4 sequence (Q96JH8 971-1071, limits assumed, looked up): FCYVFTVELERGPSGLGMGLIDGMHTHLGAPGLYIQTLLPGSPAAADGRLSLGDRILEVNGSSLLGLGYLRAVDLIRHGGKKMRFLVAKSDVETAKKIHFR

[11] = molecular target: LDB3, O75112
LDB3, O75112, sequence (O75112 1-94): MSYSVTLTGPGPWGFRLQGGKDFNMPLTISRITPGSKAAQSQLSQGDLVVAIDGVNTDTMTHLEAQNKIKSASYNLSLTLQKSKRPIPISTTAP

[12] = molecular target: AHNAK1, Q09666
AHNAK1, Q09666, sequence (Q09666 4-100): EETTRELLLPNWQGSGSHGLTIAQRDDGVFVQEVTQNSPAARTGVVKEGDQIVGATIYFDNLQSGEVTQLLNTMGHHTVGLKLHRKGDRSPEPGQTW

[13] = molecular target: T5, SNTB1, Q13884
T5 sequence (Q13884 107-205, limits assumed, looked up): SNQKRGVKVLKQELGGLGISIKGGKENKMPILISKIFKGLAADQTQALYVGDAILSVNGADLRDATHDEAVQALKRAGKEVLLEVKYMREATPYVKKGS

[14] = molecular target: T6, TX1BP3, O14907
T6 sequence (O14907 10-122, limits assumed, looked up): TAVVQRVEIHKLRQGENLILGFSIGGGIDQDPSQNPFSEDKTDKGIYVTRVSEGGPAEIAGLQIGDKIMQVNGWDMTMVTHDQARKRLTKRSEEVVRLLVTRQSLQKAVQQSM

[15] = molecular target: T7, TJP3_3, O95049
T7 sequence (O95049 375-456, limits assumed, looked up): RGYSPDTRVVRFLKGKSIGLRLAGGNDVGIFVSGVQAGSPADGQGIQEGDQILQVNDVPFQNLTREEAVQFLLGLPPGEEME

[16] = molecular target: DLG4_3, P78352
DLG4_3, P78352, sequence (P78352 306-403): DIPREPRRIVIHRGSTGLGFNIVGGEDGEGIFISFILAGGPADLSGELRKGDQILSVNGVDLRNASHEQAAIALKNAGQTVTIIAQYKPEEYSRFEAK

[17] = molecular target: GRID2IP_2, A4D2P6
GRID2IP_2, A4D2P6, sequence (A4D2P6 272-370): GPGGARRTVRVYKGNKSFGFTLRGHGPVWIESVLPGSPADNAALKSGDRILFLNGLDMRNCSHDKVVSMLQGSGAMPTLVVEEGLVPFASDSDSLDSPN

[18] = molecular target: T8, HTRA3, P83110
T8 sequence (P83110 354-453, limits assumed, looked up): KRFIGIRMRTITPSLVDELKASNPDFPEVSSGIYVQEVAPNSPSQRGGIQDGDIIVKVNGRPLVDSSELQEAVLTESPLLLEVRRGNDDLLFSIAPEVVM

[19] = molecular target: T9, LIN7B, Q9HAP6
T9 sequence (Q9HAP6 88-185, limits assumed, looked up): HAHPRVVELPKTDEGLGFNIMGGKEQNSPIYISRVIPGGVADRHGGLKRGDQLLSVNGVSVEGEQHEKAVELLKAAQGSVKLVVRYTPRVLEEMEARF

[20] = molecular target: T10, SIPA1L2, Q9P2F8
T10 sequence (Q9P2F8 945-1036, limits assumed, looked up): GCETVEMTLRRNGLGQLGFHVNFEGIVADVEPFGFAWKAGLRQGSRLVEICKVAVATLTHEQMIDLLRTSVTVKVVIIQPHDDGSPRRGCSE

[21] = molecular target: T11, NHERF3_4, Q5T2W1
T11 sequence (Q5T2W1 373-468, limits assumed, looked up): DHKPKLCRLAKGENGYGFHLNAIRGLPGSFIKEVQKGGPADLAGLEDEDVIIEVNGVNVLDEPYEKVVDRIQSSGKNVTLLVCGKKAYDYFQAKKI

[22] = molecular target: T12, HTRA4, P83105
T12 sequence (P83105 378-476, limits assumed, looked up): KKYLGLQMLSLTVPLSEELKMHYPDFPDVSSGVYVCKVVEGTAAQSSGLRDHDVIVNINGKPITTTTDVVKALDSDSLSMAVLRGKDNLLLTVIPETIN

[23] = molecular target: DLG2_2, Q15700
DLG2_2, Q15700, sequence (Q15700 189-283): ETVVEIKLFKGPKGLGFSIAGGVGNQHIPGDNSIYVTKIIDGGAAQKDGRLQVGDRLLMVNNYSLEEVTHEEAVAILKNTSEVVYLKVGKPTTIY

[24] = molecular target: TJP1_3, Q07157
TJP1_3, Q07157, sequence (Q07157 416-512): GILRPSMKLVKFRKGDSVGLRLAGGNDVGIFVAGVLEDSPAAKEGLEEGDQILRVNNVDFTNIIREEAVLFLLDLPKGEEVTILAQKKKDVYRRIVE

[25] = molecular target: T13, SNTA1, Q13424
T13 sequence (Q13424 82-180, limits assumed, looked up): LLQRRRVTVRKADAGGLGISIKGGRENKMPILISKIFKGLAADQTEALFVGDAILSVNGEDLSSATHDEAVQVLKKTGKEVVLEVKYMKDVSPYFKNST

[26] = plain residues with an end cap or a label only (N-terminal biotin on a linker: gsgsgs; C-terminal amide)
[27] = plain residues with an end cap or a label only (N-terminal biotin on a linker: ttds)

Measured: pKd

MAGI2_4, Q86UL8, sequence (Q86UL8 772-865): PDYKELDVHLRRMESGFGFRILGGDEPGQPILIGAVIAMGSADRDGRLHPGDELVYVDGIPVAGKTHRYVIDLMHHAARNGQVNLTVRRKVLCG
MAGI1_2, Q96QZ7, sequence (Q96QZ7 456-580): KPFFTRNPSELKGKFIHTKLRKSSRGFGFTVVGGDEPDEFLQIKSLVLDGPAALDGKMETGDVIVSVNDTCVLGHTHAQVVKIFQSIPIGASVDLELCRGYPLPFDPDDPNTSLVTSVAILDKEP

B1: AXIN1_int, O15169 (peptide)
chain: TLSLTDSSVDGIPPYR
3.78: [14]; [26]
3.72: [19]; [26]
below the threshold: [1]; [26] | [2]; [26] | [3]; [26] | [4]; [26] | [5]; [26] | [6]; [26] | [7]; [26] | [8]; [26] | [9]; [26] | [10]; [26] | [11]; [26] | [12]; [26] | [13]; [26] | [15]; [26] | [16]; [26] | [17]; [26] | [18]; [26] | [20]; [26] | [21]; [26] | [22]; [26] | [23]; [26] | [24]; [26] | [25]; [26]

B2: DLGAP4, Q9Y2H0 (peptide)
chain: IYVPEAQTRL
4.2: [13]; [27]
4.08: [17]; [27]
3.87: [21]; [27]
3.98: [25]; [27]
below the threshold: [1]; [27] | [2]; [27] | [4]; [27] | [5]; [27] | [7]; [27] | [8]; [27] | [9]; [27] | [10]; [27] | [11]; [27] | [12]; [27] | [14]; [27] | [15]; [27] | [16]; [27] | [18]; [27] | [19]; [27] | [20]; [27] | [22]; [27] | [23]; [27] | [24]; [27]
3.77: [3]; [27]
3.7: [6]; [27]

B3: HPV16-E6, P03126 (peptide)
chain: SSRTRRETQL
3.68: [15]; [27]
3.86: [17]; [27]
4.67: [5]; [27]
4.87: [14]; [27]
4.75: [25]; [27]
3.49: [7]; [27]
3.89: [2]; [27] | [21]; [27]
5.91: [1]; [27]
5.06: [16]; [27]
3.66: [8]; [27]
3.65: [10]; [27]
4.92: [13]; [27]
4.15: [6]; [27]
3.91: [19]; [27]
4.93: [23]; [27]
below the threshold: [3]; [27] | [4]; [27] | [9]; [27] | [11]; [27] | [12]; [27] | [18]; [27] | [20]; [27] | [22]; [27] | [24]; [27]

B4: SLC1A5, Q15758 (peptide)
chain: TVASEKESVM
3.69: [14]; [27]
3.56: [6]; [27]
3.67: [3]; [27]
below the threshold: [1]; [27] | [2]; [27] | [4]; [27] | [5]; [27] | [7]; [27] | [8]; [27] | [9]; [27] | [10]; [27] | [11]; [27] | [12]; [27] | [15]; [27] | [16]; [27] | [18]; [27] | [19]; [27] | [20]; [27] | [21]; [27] | [22]; [27] | [23]; [27] | [24]; [27]
3.81: [25]; [27]
3.7: [17]; [27]
4.07: [13]; [27]

B5: KIR3DL3, Q8N743 (peptide)
chain: PKTPPTDTSV
3.67: [14]; [27]
below the threshold: [1]; [27] | [2]; [27] | [3]; [27] | [4]; [27] | [6]; [27] | [7]; [27] | [8]; [27] | [9]; [27] | [10]; [27] | [11]; [27] | [12]; [27] | [13]; [27] | [15]; [27] | [16]; [27] | [17]; [27] | [18]; [27] | [19]; [27] | [20]; [27] | [21]; [27] | [22]; [27] | [23]; [27] | [24]; [27] | [25]; [27]
4.02: [5]; [27]
